The target in experiment [1] is staphylococcal enterotoxin C (SEC-2), wild type (Staphylococcus aureus) (UniProt P34071). Briefly: ELISA. A general note: ELISA stands for enzyme-linked immunosorbent assay.
Experiment [2] has the same target. Kind of experiment: SPR. (SPR reads the build-up and loss of mass on a sensor chip optically.)

The results in this text go back to publication PMC13190736.

B1: Nb C107 (VHH)
VHH: QVQLVESGGGLVQPGGSLRLSCAPSGSTSGIYASGWYRQVPGKPQEWLADISRGGSTKYADSVKGRFTISRDNAKNTVYLQMNSLKPEDTATYYCRVIDTLGAEYRGQGTQVTVSS
Consider B1, for which the EC50 (in general, the midpoint of the concentration-response curve) in experiment [1] stood at 2.5 nM. In other words, the single-digit nanomolar range.

B2: Nb C112 (VHH)
VHH: QVQLVESGGGLVQAGGSLRLSCTASERMYGIEMGWFRQAPGKERELVAAITWSGVVSHLQESVKGRFTISRDNPKKTVYLQMNSLKPEDTATYYCAGHRLQWASGYTRHDYGSWGQGTQVTVSS
Regarding B2, the Kd (commonly the concentration at which binding is half-saturated) in experiment [2] was found to be 0.179 nM.
